Data on 1 protein can be found in PMC4665922, “Comparative assessment of native and heterologous 2-oxo acid decarboxylases for application in isobutanol production by Saccharomyces cerevisiae” (Biotechnology for Biofuels, 2015).

Assay in all cases: cells, lysate or membranes
What all share (type): biochemical, Lactococcus lactis

Substrate in series [1]: CC(C)CC(=O)C(=O)O
To be noted: cell extract of ammonium-grown cells, pH 7.0, 30 °C, 0.2 mM thiamine pyrophosphate, 5 mM MgCl2.

Substrate in series [2]: CC[C@H](C)C(=O)C(=O)O
To be noted: cell extract of ammonium-grown cells, pH 7.0, 30 °C, 0.2 mM thiamine pyrophosphate, 5 mM MgCl2.

Substrate in series [3]: CC(C)C(=O)C(=O)O
The settings on record: cell extract of ammonium-grown cells, pH 7.0, 30 °C, 0.2 mM thiamine pyrophosphate, 5 mM MgCl2, cooperative, Hill equation.

B1: KivD (Lactococcus lactis subsp. lactis) (protein)
chain: MYTVGDYLLDRLHELGIEEIFGVPGDYNLQFLDQIISHKDMKWVGNANELNASYMADGYARTKKAAAFLTTFGVGELSAVNGLAGSYAENLPVVEIVGSPTSKVQNEGKFVHHTLADGDFKHFMKMHEPVTAARTLLTAENATVEIDRVLSALLKERKPVYINLPVDVAAAKAEKPSLPLKKENSTSNTSDQEILNKIQESLKNAKKPIVITGHEIISFGLEKTVTQFISKTKLPITTLNFGKSSVDEALPSFLGIYNGTLSEPNLKEFVESADFILMLGVKLTDSSTGAFTHHLNENKMISLNIDEGKIFNERIQNFDFESLISSLLDLSEIEYKGKYIDKKQEDFVPSNALLSQDRLWQAVENLTQSNETIVAEQGTSFFGASSIFLKSKSHFIGQPLWGSIGYTFPAALGSQIADKESRHLLFIGDGSLQLTVQELGLAIREKINPICFIINNDGYTVEREIHGPNQSYNDIPMWNYSKLPESFGATEDRVVSKIVRTENEFVSVMKEAQADPNRMYWIELILAKEGAPKVLKKMGKLFAEQNKS
notes: full-length ORF, codon optimised, no tag mentioned; TDH3 promoter plasmid pUDE336 in S. cerevisiae IME262 (pdc1 pdc5 pdc6 aro10 deleted); cell extract
As usually defined, the Km is the substrate concentration at which the rate is half of its maximum. A word on the Vmax: it is the top rate of the reaction or transport when substrate is in excess. As to B1, in series [1], the Michaelis constant (Km) was determined as 2.42 ± 0.90 mM, the Vmax was 0.04 µmol/min/mg and the Vmax/Km came out at 17 µL/min/mg. In series [2], the Km stood at 12.9 ± 2.87 mM, the Vmax came to 0.05 µmol/min/mg and the Vmax/Km is 3.9 µL/min/mg. For the same protein, in series [3], the K0.5 came to 7.73 ± 1.62 mM, the Vmax amounted to 0.03 µmol/min/mg and the Vmax/Km stood at 3.9 µL/min/mg.
